Each block holds one substance with its values, some of them ahead of it.
How the values were obtained:
[1] = biological target: T1, Rabbit muscle actin (Oryctolagus cuniculus, UniProt P68135); experiment: Peptide array screen for actin binding; settings: peptides on cellulose membrane; 5 μM actin; densitometry relative to K108-K133
T1 construct: Rabbit muscle actin (A2522, Sigma-Aldrich, St Louis, Mo.); purchased Sigma-Aldrich, St Louis, Mo; A2522; host or cells: rabbit muscle (tissue-derived)
Experimental: The peptides were acetylated at their N-termini and attached to a cellulose membrane via their C-termini through an amide bond. Peptide array (INTAVIS Bioanalytical Instruments AG, Koeln, Germany).
The array was immersed in 5 ml blocking solution (TBST containing 2.5% milk) for 4 hours with shaking, then washed once with blocking solution (30 sec.) and twice with TBST (5 min. each). 5 μM actin were dissolved in the blocking solution (˜1:3), and incubated with the array at 4° C. with shaking overnight. After washing with TBST (1×30 sec. and 2×5 min.) the array was incubated first with rabbit anti actin antibody diluted 1:100 in blocking solution for 4 hours at room temperature followed by washings three times with TBST (1×30 sec. and 2×5 min.). The array was then incubated with horseradish peroxidase-conjugated goat anti rabbit IgG antibody diluted 1:10,000 in blocking solution at room temperature for 2 hours followed by washing with TBST (1×30 sec. and 2×5 min.). Immunodetection was performed using chemiluminiscence with ECL reagents.
The modifications included an alanine scan, truncations and systematic replacements of each residue in each peptide by the corresponding D-amino acid residue and N-methylated residue, C terminal truncations and N terminal truncations. The array was screened for binding the actin protein.

[2] = system: HUVEC; experiment: HUVEC tube formation assay on Matrigel; assay type: cell-based, human; settings: angiogenin or VEGF induced; 2 μM peptide
Experimental: FIGS. 6A-6D illustrate in-vitro inhibition of angiogenesis in the HUVEC model by T2 peptides. HUVEC cells plated on Matrigel™ were exposed to 2 μM of T2 peptides A103-Q159 (SEQ ID NO: 60), K108-K133 (SEQ ID NO: 57) or K108-L123 (SEQ ID NO: 67), in addition to 1 μg/ml of angiogenin or VEGF as the angiogenic agent, as indicated. Control wells received PBS. FIG. 6B-Results were assessed by imaging software, and quantified, and expressed relative to tube formation with angiogenin or VEGF alone (100%) Column 1=angiogenin, column 2=angiogenin+SEQ ID NO: 60, column 3=angiogenin+SEQ ID NO: 57, column 4=angiogenin+[…], Column 5=VEGF, column 6=VEGF+SEQ ID NO: 60, column 7=VEGF+SEQ ID NO: 57, column 8=VEGF+[…]. FIGS. 6C and 6D illustrate the inhibitory effect of truncated human T2 polypeptide trT2-49m (SEQ ID NO: 129) on angiogenin and VEGF induced HUVEC tube formation. Note the significant inhibition of HUVEC tube formation by all of the T2 peptides assayed, and in particular, K108-K133 (SEQ ID NO: 57);
HUVEC (CC-2519)(fresh or commercially provided) are maintained in M199 rrrediurn supplemented with 20% FCS, 1% glutamine, 1% antibiotic-antimycotic solution, ECGF, and heparin, plated in a 96-well plate (14×10^3 cells/well) previously coated with growth factor-depleted Matrigel™ (BD Biosciences), in M199 medium containing 5% FCS and 0.005% ECGF. The wells are supplemented with candidate T2 RNase peptides or PBS, and angiogenic growth factors (1 μg/ml angiogenin, bFGF or VEGF) to a final volume of 120 pl. Plates are incubated (overnight), photographed and the extent of tube formation (angiogenesis) assessed.

[3] = biological target: T2, G-Actin from rabbit muscle (Oryctolagus cuniculus, UniProt P68135); experiment: ELISA actin binding assay (solid-phase, immobilized actin); settings: immobilized G-actin 500 ng/well
T2 construct: G-Actin from rabbit muscle; purchased Sigma-Aldrich, St Louis, Mo; host or cells: rabbit muscle (tissue-derived)
Experimental: Peptides corresponding to a variety of amino acid sequences in the region of human RNASET2 comprising helix 5 and helix 6 were synthesized and assayed for actin binding in an ELISA actin binding assay.
Solid-phase ELISA for RNASET2 peptide binding to immobilized actin was performed as modified from Mejean 1987 (Biochem. J. 244: 571-577) and Mejean 1992 (Eur. J Biochem. 209: 555-562). All steps were conducted at 37° C. Immuno-96 Microwell™ solid plates (Thermo Fisher Scientific, MA) coated with 500 ng/well of G-Actin from rabbit muscle (Sigma-Aldrich, St Louis, Mo.) in 100 ul of 0.05 M carbonate buffer, pH 9.5 (Sigma-Aldrich, Mo), incubated for 1 h and washed with 250 ul/well Tris Buffered Saline (TBS) (Sigma-Aldrich). The wells were blocked with 3% bovine serum albumin (BSA, Sigma-Aldrich) in 200 ul/well TBS for another 1 hour and washed with 250 ul/well TBS. The candidate peptides are then added at various concentrations (for example, serial dilutions giving 500, 250 or 125 ng/well) in 100 ul/well Tris Buffered Saline (TBS), incubated for 1 hour and washed 3 times with 250 ul/well TBS containing 0.05% Tween®20 (TBST, Sigma-Aldrich). Anti-T2 RNase (rabbit anti-rhtrRNASET2, Anilab, Israel, whole serum or antiserum) was then added, incubated for 1 hour and the plates washed 3 times with 250 ul/well TBST. Labeled second antibody [peroxidase-conjugated affinity pure goat-anti rabbit IgG (Jackson, Pa.)] was added at a dilution of 1:10:000 in 100 ul/well TBS, incubated for 1 hour and the plates washed twice with 250 ul/well TBST. After an additional wash with 250 ul/well TBS, 1-Step Ultra TMB-ELISA (TMB-3,3′,5,5′ Tetramethylbenzidine) (Thermo-Scientific) was added (100 ul/well) and after 15-25 min of incubation, the reaction was read at A650 using Infinite F50-TECAN ELISA READER (TECAN, Austria). Each assay was performed in triplicates.

[4] = system: chick Chorio-Allantoic Membrane (CAM); experiment: Ex ovo CAM angiogenesis assay; assay type: in vivo, chicken; settings: 3 μg on paper disk daily for four days from day 8; compared to PBS control
Experimental: In this assay, in-vivo angiogenesis is assessed on live chick embryos grown in petri dishes. Fertilized eggs are cracked into a petri dish after a few (e.g. 3) days incubation at appropriate temperature (e.g. 37° C.) and humidity. In the following days, the embryos developed a vascular network, which can then easily be exposed to any treatment or combination of treatments, for example, via delivery onto absorbent disks placed on/about the developing vascular regions. Angiogenesis is scored by periodically (e.g. 1×/day, 2×/day, 1×/2 days, 1×/4 days, etc) counting the number of blood vessels around the disk.
Fertilized chicken eggs were incubated horizontally at 37° C. and humidity of 60-62% and cracked into Petri dishes at embryonic day 4. Incubation was continued under the same conditions. […] Treatment was given every day for four days, then, the number of blood vessels around the treated disks was counted.

[5] = biological target: actin (Oryctolagus cuniculus, UniProt P68135); experiment: Surface plasmon resonance (BIAcore) of actin binding; settings: actin on CM5 chip, 25° C.
Experimental: SPR was performed on a BIAcore 3000 instrument (BIAcore, Uppsala, Sweden). Actin was diluted in 100 mM CH3COONa pH 4.6 to a final concentration of 20 μg/ml (200 μl total) resulting in ˜1 ng immobilized actin on a CM5 BIAcore sensor chip (GE Healthcare Bio-Sciences AB) using the standard BIAcore amine coupling chemistry protocol. The CM5 chip allows four separate flow cells to be operated in the BIAcore 3000 instrument used in these experiments. Coupling is achieved by activating the surface of the sensor chips with equal volumes of 50 mM N-hydroxysuccimide (NHS)/200 mM Nethyl-N-(3-[…])-carboiimide (EDC) (BIAcore, AB, Uppsala, Sweden) to form activated carboxyl groups. An actin solution […] was run over the chip for 5 min at a rate of 10 μl/min, allowing the amine groups on the protein to react with the activated esters. In the final stage of immobilization, the surface was blocked by 1M ethanol amine, pH 8.0. The binding assay was performed by injecting the hRNASET2, trT2-49, trT2-49m or peptides solutions in running buffer (HBS—10 mM Hepes, 150 mM Sodium Chloride, 3 mM EDTA, 0.005% Polysorbate 20) at 5 different concentrations at a flow rate of 10 μl/min at 25° C. Injections were performed simultaneously over all four channels and blank surface (a plain dextran matrix, channel 1) was used as control. The net signal was obtained by subtracting the blank signal from the signal of the immobilized surface. The association phase for protein or peptides binding to actin was followed for 4 min, and dissociation phases were monitored for 3 min. Surface regeneration between consecutive binding cycles included a 1 min injection of 1 mM NaOH. The response was monitored as a function of time (sensorgram) at 25° C. Multi-concentration data were globally fit using BIA evaluation 3.2 software.
The strength of a two molecule interaction is characterized by the equilibrium dissociation (binding) constant KD=[P][L]/[PL], where [P] is the concentration of free protein (or peptide), [L] the concentration of ligand and [PL] the concentration of the complex. […]

Substance: KKYFGRSLEL [SEQ ID NO: 131]
actin binding of immobilized peptides [1]: significant actin binding

Substance: SEQ ID NO: 67: peptide K108-L123 of human RNASET2, 16 aa
inhibition of HUVEC tube formation [2]: unable to inhibit tube formation

Substance: LYREL [SEQ ID NO: 132]
actin binding of immobilized peptides [1]: significant actin binding

Second part, led by results:

actin binding of immobilized peptides [1]: significant actin binding
Substance: KKYFGRSLELYR [SEQ ID NO: 62]

actin binding on ELISA [3]: moderate
Substance: SEQ ID NO: 63: peptide representing amino acids 103-141 of RNASET2 (ALNSQKKYFGRSLELYRELDLNSVLLKLGIKPSINYYQV)

Ka × 10^3 [5]: 1.44 ×10^3 1/Ms
Substance: SEQ ID NO: 1: mature full length human RNASET2, T2 family ribonuclease
inhibition of angiogenesis (number of blood vessels around disk) [4]: effective in inhibiting angiogenesis

Source: patent publication US20160340659A1, “ACTIN BINDING PEPTIDES AND COMPOSITIONS COMPRISING SAME FOR INHIBITING ANGIOGENESIS AND TREATING MEDICAL CONDITIONS ASSOCIATED WITH SAME” (YISSUM RESEARCH AND DEVELOPMENT COMPANY OF THE HEBREW …, priority 2014, published 2016)
